The results in this text go back to PMC10776578, “Epstein-Barr virus-driven B cell lymphoma mediated by a direct LMP1-TRAF6 complex” (Nature Communications, 2024).

For series [1], the system named is LMP1-CL 37 B cell lymphoma. In words: CRISPR/Cas9 knockout, cell survival (selection score) of lymphoma LMP1-CL 37. Type of series: cell-based, mouse. Also noted: key: Venus-neg d7 / mCherry+ d2, normalized to nontargeting gRNA (=1). The settings on record: for cell survival (selection score), Figure 6 b: CRISPR guides. The source says:
(§1) The mouse LMP1 B cell tumors LMP1-CL 37 and 40 were derived from two B cell tumors arising in Rag2^KO;cγ^KO mice inoculated with primary tumor cells from Rag2^KO;cγ^KO mice reconstituted with fetal liver hematopoietic stem cells and progenitor cells from CD19-cre;R26-LMP1^STOPfl;CD3ε^KO animals as described. In these cells, a Venus expression cassette was targeted into the Rosa26 locus by CRISPR/CAS9 as described. Venus-LMP1 B cells were electroporated (Nucleofector, Lonza, human B cell program) with 1 µg of each of two pX330-mcherry-CAS9 vectors[83] encoding varying guide RNAs. In each approach, the first guide RNA (gRNA) targeted Venus while the second gRNA targeted either a nontargeting control sequence not present in the genome, or the gene of interest (GOI). The following gRNA sequences were used: nontargeting (NT) […], ICAM1 […], LMP1 #1 […], LMP1 #2 CCAAAACAGTAGCGCCAAG, LMP1 #3 AATCATCGGTAGCTTGTTG, TRAF6 #1 […], TRAF6 #2 […], TRAF6 #3 […]. The electroporation efficiency, measured as the frequency of mCherry-positive cells on day two after electroporation, was determined by flow cytometry with a Becton Dickinson LSRFortessa flow cytometer. On day seven, the loss of Venus was measured by flow cytometry as a surrogate marker for the number of surviving targeted cells. In the case of a lethal coexpressed GOI gRNA, Venus-negative cells will not survive, and their relative numbers are reduced. The given selection score is defined as the frequency of Venus-negative cells on day seven over the frequency of mCherry-positive cells on day two, normalized to the ratio observed with the nontargeting control gRNA. FACS data were analyzed by FlowJo software. The gating strategy is exemplified in Supplementary Fig. 5b. Animal housing and experiments to generate LMP1 lymphomas were approved by the Landesamt für Gesundheit und Soziales Berlin (G0049/15, G0374/13, and G0135/11). Mice were kept in groups in individually ventilated cages with a 12 h dark-light cycle at 22 ± 2 °C and 55 ± 5% relative humidity. They had access to food and water ad libitum, as well as to nest building material and shelter.

Series [2] relates to LMP1-CL 40 B cell lymphoma. In words: CRISPR/Cas9 knockout, cell survival (selection score) of lymphoma LMP1-CL 40. Also noted: key: Venus-neg d7 / mCherry+ d2, normalized to nontargeting gRNA (=1). The settings on record: for cell survival (selection score), Figure 6 b: CRISPR guides. It is filed as cell-based, mouse.
Text: as §1

In another series the test system is GST-LMP1_181-386. In words: AlphaScreen PPI, TRAF6 mutants binding to LMP1. Also noted: species or system Epstein-Barr virus; TRAF6 binding to LMP1 (AlphaScreen), mean: unit not given here. As for the experimental part:
(§2) Fig. 2 LMP1 binds to the receptor-interacting surface of TRAF6. a Mutations within the receptor-interacting surface of TRAF6 affect binding to LMP1. The TRAF6 mutants R392A, K469A, F471A, and Y473A were tested LMP1 in AlphaScreen PPI experiments with GST-LMP1_181-386. Data are mean values ± SD of three independent experiments. Statistics: one-way ANOVA. b TRAF6 R392A differentiates between CD40 and LMP1/RANK. AlphaScreen PPI experiments with GST-CD40_216-277. Data are mean values ± SD of three independent experiments. […] AlphaScreen PPI experiments with GST-RANK314-355. Data are mean values ± SD of four independent experiments. Statistics: one-way ANOVA. d TRAF6 mutants that fail to interact with LMP1 in PPI assays are also unable to bind cellular LMP1. HEK293 cells were co-transfected with HA-LMP1 and the indicated Flag-TRAF6 mutants. Flag-TRAF6 was immunoprecipitated (IP) via its Flag-tag and coprecipitated HA-LMP1 was detected on immunoblots by an α-HA antibody. Uncropped blots in Supplementary Fig. 6b. For statistical analysis LMP1 signals were digitalized and quantified (graph). Data are mean values ± SD of three independent experiments. […] TRAF6 recruitment is dependent on amino acids 371 − 386 of LMP1 (small panel). Confocal microscopy images show representative cells of three independent experiments. Quantitative data are mean values ± SD of ten randomly selected cells per transfection of one representative experiment (graph). Scale bars: 10 µm. Statistics: one-way ANOVA. p-values: *p ≤ 0.05, **p ≤ 0.01, ***p ≤ 0.001, ****p ≤ 0.0001. Source data and exact p-values in the Source Data file.
(§3) AlphaScreen experiments were performed in 96- or 384-well plates (Perkin Elmer, OptiPlate). In both assay formats, His-TRAF and GST-LMP1, GST-CD40, or GST-RANK proteins were incubated together in 40 µL of PBS (protein concentrations were calculated to the final reaction volume of 60 µL) supplemented with 0.5% BSA (Sigma, #A7030) and 0.1% Tween-20 (AppliChem, #A4974), for 1 h at room temperature (RT). If not indicated otherwise, standard protein concentrations were 300 nM for His-TRAF proteins and 100 nM for GST-LMP1 proteins. Ni-NTA-acceptor (Perkin Elmer, #6760619 C) and GST-acceptor (Perkin Elmer, # 6765300) beads were added each to a final concentration of 1–4 µg per mL in a final reaction volume of 60 µL and incubated for 1 h at RT in the dark. AlphaScreen PPI signals were measured in a CLARIOstar reader (BMG Labtech GmbH).
For orientation: Alpha assays give light when donor and acceptor beads are brought close together.

A further series relates to GST-CD40_216-277. In words: AlphaScreen PPI, TRAF6 mutants binding to CD40. Details: species or system human; TRAF6 binding to CD40 (AlphaScreen), mean: unit not given here. As for the experimental part: as §2, §3
The test system of series [3] is HA-LMP1. In words: Coimmunoprecipitation of HA-LMP1 with Flag-TRAF6 mutants in HEK293 cells. Type of series: cell-based, Epstein-Barr virus. Here is the method: Immunoblotting was essentially performed as described. Proteins were detected on nitrocellulose membranes (Bio-Rad, #1620115) using the following primary antibodies: α−6*His-tag (clone 4A4 or 2F12, source: antibody facility of the Helmholtz Center Munich, hybridoma supernatants were used at a 1:10 dilution)[75], α-TRAF6 (H-274, Santa Cruz Biotech., #sc-7221, used at 1:1000), α-HA-tag (12CA5, Sigma-Aldrich, #11583816001, used at 0.4 µg per mL), α-IκBα (C-21, Santa Cruz Biotech., #sc-371, used at 1:500) and α-Tubulin (B-5-1-2, Santa Cruz Biotech., #sc-23948, used at 1:500). Horseradish peroxidase-coupled antibodies were used as secondary antibodies (Cell Signalling Technology, #7074 or #7076, respectively, both used at 1:5000). ECL signals were captured on X-ray films (Agfa Healthcare) and quantified by densitometry using the ImageJ software. Uncropped scans of immunoblots indicating molecular weights are provided in Supplementary Fig. 6.
HEK293 cells were transfected with 1 µg of pRK5-Flag TRAF6 plasmids, 1 µg of pCMV-HA-LMP1 and 6 µg of pRK5 per 10 cm cell culture dish using PolyFect Transfection Reagent (Qiagen, #301107) in RPMI without supplements. Cells were incubated with the plasmid transfection mix for 4 h before the medium was changed to RPMI full medium. After 24 h, the cells were lysed in NP40-lysis buffer (50 mM HEPES pH 7.5, 150 mM NaCl, 5 mM EDTA, 0.5 mM sodium orthovanadate, 0.5 mM PMSF, 0.5 mM sodium molybdate, and cOmplete protease inhibitor cocktail). Lysates were cleared by centrifugation at 15000 x g for 10 min at 4 °C, and the protein concentration was adjusted to 1 mg per mL. For immunoprecipitation 4 mL of lysate was incubated with the α-Flag antibody 6F7 (Sigma-Aldrich, #F3165; covalently coupled to protein-G-Sepharose) for 1 h at 4 °C. The beads were pelleted at 15000 x g for 30 seconds at 4 °C, washed twice with NP40-lysis buffer, and analyzed by immunoblotting.

Series [4] relates to HA-LMP1. Put plainly: Confocal immunofluorescence colocalization of Flag-TRAF6 with HA-LMP1 in HeLa cells. It is filed as cell-based, Epstein-Barr virus. As for the experimental part:
HeLa cells were seeded onto cover glasses (Thermo Scientific, Menzel) in 24-well plates one day before transfection. Cells were transfected at 50–60% confluency with 50 ng of pCMV-HA-LMP1 plasmids and 100 ng of pRK5-Flag-TRAF6 plasmids, adjusted to a total of 500 ng DNA per sample with pRK5 empty vector, using Lipofectamine 2000 (Thermo Fisher Scientific) according to the manufacturer’s instructions. At 24 h posttransfection, cells were washed once with PBS and fixed with 4% paraformaldehyde (Sigma-Aldrich) for 20 min at RT, followed by permeabilization with 0.3% (v/v) Triton X-100 and blocking with 5% (v/v) FBS in PBS for 1 h at RT. For immunostaining, the cells were incubated overnight with the primary antibodies α-HA (1:1000, clone 16B12, BioLegend) and α-DYKDDDDK (1:1000, clone L5, BioLegend) at 4 °C. The secondary antibodies goat α-mouse Alexa 488 (1:500, cross-adsorbed, Invitrogen, #A-11029) and goat α-rat Alexa 555 (1:500, cross-adsorbed, Invitrogen, #A-21434) were added for 1.5 h at RT. Microscope slides were sealed with cover glasses using Mowiol mounting medium (Sigma-Aldrich). Nuclei were stained with Hoechst 33258 (Sigma-Aldrich). All samples were imaged using a Leica TCS SP5 confocal microscope with 405 nm, 488 nm, 543 nm or 633 nm laser lines, scanning each channel separately under image capture conditions that eliminated channel overlap. For each single experiment, 10 transfected cells positive for both constructs were randomly captured as single-cell images for quantification. The resulting images were then analyzed using the Leica TCS SP5 colocalization analyses application (LAS AF Version 2.7.3.9723). Analysis was performed with default parameters.

As for “GTTTGAGCTGAGCGAGATCG (expressed or natural sequence) [ICAM1 gRNA]”, the “cell survival (selection score), Figure 6 b” value is 1.189 in series [1] (replicate 1); 1.169 in series [1] (replicate 2); 1.095 in series [1] (replicate 3); 0.9472 in series [1] (replicate 4); 1.162 in series [1] (replicate 5); 1.151 in series [1] (replicate 6). Moreover, the “cell survival (selection score), Figure 6 b” value in series [2] (replicate 1) is 1.006; in series [2] (replicate 2), 1.221; in series [2] (replicate 3), 0.6632; in series [2] (replicate 4), 1.293; in series [2] (replicate 5), 1.126. In addition, the “cell survival (selection score), mean” value was found to be 1.119 in series [1] (mean (NT mean = 1), n = 9 LMP1, 10 TRAF6, 6 ICAM1) and 1.062 in series [2] (mean (NT mean = 1), n = 9 LMP1, 10 TRAF6, 5 ICAM1).

B1: K469A (protein, UniProt Q9Y4K3 1-522, looked up, variant K469A)
TNF receptor-associated …: MSLLNCENSCGSSQSESDCCVAMASSCSAVTKDDSVGGTASTGNLSSSFMEEIQGYDVEFDPPLESKYECPICLMALREAVQTPCGHRFCKACIIKSIRDAGHKCPVDNEILLENQLFPDNFAKREILSLMVKCPNEGCLHKMELRHLEDHQAHCEFALMDCPQCQRPFQKFHINIHILKDCPRRQVSCDNCAASMAFEDKEIHDQNCPLANVICEYCNTILIREQMPNHYDLDCPTAPIPCTFSTFGCHEKMQRNHLARHLQENTQSHMRMLAQAVHSLSVIPDSGYISEVRNFQETIHQLEGRLVRQDHQIRELTAKMETQSMYVSELKRTIRTLEDKVAEIEAQQCNGIYIWKIGNFGMHLKCQEEEKPVVIHSPGFYTGKPGYKLCMRLHLQLPTAQRCANYISLFVHTMQGEYDSHLPWPFQGTIRLTILDQSEAPVRQNHEEIMDAKPELLAFQRPTIPRNPAGFGYVTFMHLEALRQRTFIKDDTLLVRCEVSTRFDMGSLRREGFQPRSTDAGV
B1: the “effect of TRAF6 mutation on binding to LMP1 (in words)” value in the series on GST-LMP1_181-386 (AlphaScreen PPI) was “did not affect the TRAF6 interaction with LMP1 or CD40”. Further, in the series on GST-LMP1_181-386 (Figure 2a, mean of n = 3), the “TRAF6 binding to LMP1 (AlphaScreen), mean” value came to 102.4. For the same molecule, the “TRAF6 binding to LMP1 (AlphaScreen)” value in the series with GST-LMP1_181-386 (Figure 2a, relative to mean wt 100, replicate 1) is on record as 73.0; with GST-LMP1_181-386 (Figure 2a, replicate 2), 116.6; in the series with GST-LMP1_181-386 (Figure 2a, replicate 3) it was 117.5. Moreover, the “effect of TRAF6 mutation on binding to CD40 (in words)” value in the series with GST-CD40_216-277 (AlphaScreen PPI) was “did not affect the TRAF6 interaction with LMP1 or CD40”. Further, the “TRAF6 binding to CD40 (AlphaScreen), mean” value in the series on GST-CD40_216-277 (Figure 2b, mean of n = 3) is 89.86. The “TRAF6 binding to CD40 (AlphaScreen)” value in the series on GST-CD40_216-277 (Figure 2b, relative to mean wt 100, replicate 1) amounted to 52.8; in the series with GST-CD40_216-277 (Figure 2b, replicate 2), 105.6; in the series with GST-CD40_216-277 (Figure 2b, replicate 3), 111.2. Moreover, the “coprecipitated HA-LMP1 signal (densitometry), mean” value with HA-LMP1 [3] (HEK293, mean of n = 3) is listed as 17563327. For the same molecule, the “interaction of TRAF6 mutants with LMP1 in HEK293 cells (in words)” value in the series on HA-LMP1 [3] (coimmunoprecipitation) is on record as “no negative effect on the interaction”. The “colocalization with HA-LMP1 (in words)” value in the series on HA-LMP1 [4] (confocal microscopy) was “colocalized to a high extent with HA-LMP1 clusters”. Also, the “colocalization of TRAF6 with LMP1, mean” value in the series with HA-LMP1 [4] (mean of ten cells) was determined as 98.27.
